From paper PMC9381478, “A context-dependent and disordered ubiquitin-binding motif” (Cellular and Molecular Life Sciences: CMLS, 2022) come the findings set out here.

One data set has as its target T1, ubiquitin (Schizosaccharomyces pombe, UniProt P0CH06).
T1 construct: plasmid coding for S. pombe ubiquitin with an N-terminal 6xhistidine-tag, TEV-cleavage site as well as an N-terminal free cysteine; made in house; host or cells: E. coli BL21(DE3)
Kind of data set: NMR titration of 15N-ubiquitin (1H-15N HSQC chemical shift perturbations). Format: binding, S. pombe. Particulars: ratio of Kd values for ubiquitin.

Data set [1] is described as follows: Solubility noted during NMR sample preparation. Format: physicochemical. The following applies: NMR buffer; interaction mapped at 30 µM 15N-Spd1.

T1 sequence (P0CH06 1-76 limits assumed): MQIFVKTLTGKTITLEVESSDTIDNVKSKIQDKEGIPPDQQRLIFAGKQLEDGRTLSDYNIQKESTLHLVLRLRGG
Experimental for ubiquitin: For interaction of the peptides with ^15N-ubiquitin, the lyophilized peptides were dissolved in MilliQ water and pH adjusted to 7.5. […] For the titrations of ubiquitin with each peptide, except the WT Dss1 peptide, 100 µM ubiquitin in NMR buffer was measured as one end point, and the 1 mM peptide and 100 µM ubiquitin as the other. Then, the peptide sample was titrated into the ubiquitin sample with titration points at 0, 50, 150, 300, 400, 500 and 1000 µM peptide. […] NMR samples were centrifuged 13.000×g for 5 min and transferred to either single-use 5 mm NMR tubes (Bruker) or 3 mm (Shigemi). To prepare NMR samples of ^15 N-labeled ubiquitin with full-length Dss1 and variants, lyophilized proteins were dissolved directly in the NMR buffer. The variants were each dissolved in 510 µL NMR buffer with 100 µM ubiquitin. The concentration of Dss1 in the NMR sample was determined by measuring the absorbance at 280 nm on a ND-1000 NanoDrop spectrophotometer, calibrated with the NMR buffer with 100 µM ubiquitin. The concentration of Dss1 varied between variants, depending on the purification yield. For all titrations, seven points of varying Dss1 concentration were recorded. To prepare NMR samples of ^15N-labeled ubiquitin with Spd1, Spd1 was buffer exchanged to MilliQ using a 3 kDa cut-off Amicon Ultra-0.5 ml centrifugal filter (Merk Millipore), lyophilized and resuspended in NMR buffer with 100 µM ubiquitin. […] For experiments with ubiquitin, 200 µL 1 mM ubiquitin was buffer exchanged to MilliQ water using a 3 kDa cut-off Amicon Ultra-0.5 ml centrifugal filter (Merk Millipore), lyophilized, and subsequently resuspended in 100 µL NMR buffer with 1 mM Dss1 for a final ubiquitin concentration of 2 mM and 1 mM, respectively. All samples were transferred to 3 mm (Shigemi) NMR tubes.
All NMR spectra were recorded on Bruker Avance III HD 600 MHz spectrometer with a Bruker proton-optimized quadruple resonance NMR ‘inverse’ (QCI) cryoprobe, a Bruker Avance III HD 750 MHz spectrometer with a Bruker proton-optimized triple resonance NMR ‘inverse’ (TCI) cryoprobe and a Bruker Avance Neo 800 MHz spectrometer with a Bruker carbon/nitrogen-optimized triple-resonance NMR 'observe' (TXO) cryoprobe. […] All spectra were zero-filled, apodized using cosine bells in all dimensions, Fourier transformed, and the zero-order phase was corrected manually using either nmrDraw, a component of NmrPipe or qMDD if spectra were recorded using non-linear-sampling (NLS). All spectra were analysed using the Analysis software.
The CSPs were fitted to a one-site-binding model using global fit, and the Kd-values are extracted using Eq. 2.2 Δδobs=Δδmax∙Pt+Lt+Kd-Pt+Lt+Kd^2-4Pt∙Lt^1/2/2∙Pt.
Peaks giving rise to large uncertainties in the fit, either due to weak signals or overlap, were removed after a first iteration of fitting, and the fit repeated on the remaining dataset.

B1: full-length Dss1: recombinant full-length S. pombe Dss1 (N71C) (protein)
chain: MSRAALPSLENLEDDDEFEDFATENWPMKDTELDTGDDTLWENNWDDEDIGDDDFSVQLQAELKKKGVAAC
modifications: left off: His6-SUMO, N-terminal, cleaved
As for B1, the “Kd of full-length protein lower than for the peptide alone” value in the data set with ubiquitin is reported as approximately 10 times.

B2: Spd1: intrinsically disordered S. pombe protein, sequence printed in b198 (protein, UniProt Q10585 1-124, looked up)
chain: MHSSKRVMTTKTHVEQPESSMRPQLPESIQGSLMDVGMRVRKSISTGYKSKQTTFPAYNPPLYNTVSENIALKNTAFSYEPNGTKRPFEQAIPNYNWANPPQDFEEPEWLKPFDVVMEGTNERL
modifications: full-length
Turning to B2, the solubility result in data set [1] was “low solubility”.
